Measurements published in patent US20220089741A1 (HUABO BIOPHARM SHANGHAI, published 2022).

B1: 36C06-D8 (antibody, V domains shown)
VH: QVQLQQSGAELVKPGASVKLSCKASGYAFTGYTIHWVKQRSGLGLEWLGWFYPGSGTLKYNEKFKDKATLTADKSSSTVYLELSRLTSEDSAVYFCARHGTGTLMAMDYWGQGTSVTVSS
VL: DVVVTQTPLSLPVSFGDQVSISCRSSQSLANSYGNTYLSWYLHKPGQSPQLLIYGISNRFSGVPDRFSGSGSGTDFTLKISTIKPEDLGMYYCLQGTHQPPTFGGGTKLEIK
notes: also called hybridoma 36C06/D8; mouse monoclonal antibody against human PD-L1
B2: chimeric antibody 900289 (antibody, V domains shown)
VH: B1 VH
VL: B1 VL
notes: Expressed in CHO-S cells; also called chimeric IgG1-kappa antibody; human-mouse chimeric antibody
B3: humanized antibody 900339 (antibody, V domains shown)
VH: QVQLVQSGAEVKKPGASVKVSCKASGYAFTGYTIHWVRQAPGQRLEWMGWFYPGSGTLKYSEKFQGRVTITRDKSLSTAYMELSSLRSEDTAVYYCARHGTGTLMAMDYWGQGTLVTVSS
VL: DVVMTQTPLSLSVTPGQPASISCKSSQSLANSYGNTYLSWYLHKPGQSPQLLIYGISNRFSGVPDRFSGSGSGTDFTLKISRVEAEDVGVYYCLQGTHQPPTFGQGTKLEIK
notes: Humanized from the chimeric antibody; Expressed in CHO-S cells; also called humanized PD-L1 monoclonal antibody

What was measured:
[1] = target: human PD-L1 protein (hybridoma screening) (human, UniProt Q9NZQ7 19-239, limits assumed); assay: SPR, hybridoma monoclone
[2] = target: T1, huPD-L1-his protein (human, UniProt Q9NZQ7 19-239); assay: ELISA, huPD-L1-his coated at 1 ug/ml
T1 construct: Bought protein; also called human PD-L1-His protein; human PD-L1 protein; not shown: His tag
Method: Specifically, 1 ug/ml huPD-L1-his protein (purchased from Sino Biological, #10084-H08H) was added to the ELISA plate at 50 ul/well, and coated at 2-8° C. for more than 12 hours. The raffinate of plate coating was discarded, 200 ul of 3% milk was added to each well, and blocked at room temperature for 1 hour. PBST not less than 200 uL was added to each well for washing once. The antibody sample to be tested was diluted to 100 ug/ml, then diluted 5 times for 11 gradients, and added to the ELISA plate at 100 uL/well. After incubation at room temperature for 1 hour, PBST no less than 200 uL was added to each well. After washing for 4 times, HRP-conjugated Rabbit Anti-Human IgG Fc Antibody (Luoyang Baiaotong Experimental Material Center, #C030222) diluted 25000 times with 3% milk-PBST was added as 100 uL/well. After incubating at room temperature for 1 hour, PBST not less than 200 uL was added to each well, washed 6 times and beat dry. 100 uL of TMB Substrate was added to each well. After 5 minutes of reaction at room temperature, 50 uL/well of 2M H2504 was added to terminate the reaction. The ELISA plate with stopped reaction was placed on the microplate reader, and the absorbance of OD450 value was read at 450 nm wavelength.

[3] = target: T2, huPD-L1-moFc (human, UniProt Q9NZQ7 19-238, limits assumed); assay: flow cytometry competition: blocking of huPD-L1-moFc binding to cells expressing human PD-1
T2 construct: also called 800023, Huabo Bio; not shown: mouse Fc
Method: The suspension of cells (3C2-huPD-1-6F4, Huabo Bio) expressing human PD-1 in the logarithmic growth phase was centrifuged (1000 rpm×5 min) to discard the culture medium, and the cells were resuspended with 1% BSA/PBS to a living cell density of 1×10⁶/ml. […] The reacted 96-well U-shaped plate was resuspended with 1% BSA/PBS, centrifuged (300 g×3 min) to discard the supernatant, and washed like this for twice. […] The reacted 96-well U-shaped plate was resuspended with 1% BSA/PBS, centrifuged (300 g×3 min) to discard the supernatant, and washed like this for three times. Finally, the plate was resuspended with 100 uL of 1% BSA/PBS for each well and the fluorescence intensity of the first channel was detected by flow cytometry (BD, #Accuri C6).

[4] = target: T1, huPD-L1-his protein; assay: SPR (Biacore 8K), antibody captured on anti-human capture CM5 chip, huPD-L1 as analyte, 1:1 model
Method: In this experiment, SPR method was used to determine antibody-antigen binding kinetics and affinity.
Anti-Human Capture-CM5 chip (GE, #BR-1005-30) was prepared according to the coupling method of Human Antibody Captrue Kit (GE, #BR-1008-39) and Amino Coupling Kit (GE, BR-1000-50). The chip was balanced at room temperature for 20-30 min, and loaded into a Biacore 8K instrument. B5D1 was diluted to the experimental working concentration with equilibration buffer. The antigen was diluted to 50 nM with equilibration buffer, then diluted 3 times for 7 concentration gradients, and 2 zero concentrations (i.e. equilibration buffer) and 1 repeated concentration (generally is a repeat of lowest concentration) were set. In the order of antibody, antigen huPD-L1 (Sino Biological, #10084-H08H), and regeneration, 10 antigen concentrations (2 zero concentrations, 7 gradient concentrations, and 1 repeat concentration) were cyclically subjected to experimental analysis. The antigen injection flow rate was 30 uL/min, the binding time was 120 seconds, and the dissociation time was 600 seconds.

[5] = target: T3, rhPD-L1-his protein (monkey, UniProt G7PSE7 19-238); assay: ELISA, rhPD-L1-his coated
T3 construct: Bought protein; also called monkey PD-L1 protein; Sino Biological #90251-C08H; not shown: C-terminal His tag
T3 sequence (G7PSE7 entry or part of it limits assumed): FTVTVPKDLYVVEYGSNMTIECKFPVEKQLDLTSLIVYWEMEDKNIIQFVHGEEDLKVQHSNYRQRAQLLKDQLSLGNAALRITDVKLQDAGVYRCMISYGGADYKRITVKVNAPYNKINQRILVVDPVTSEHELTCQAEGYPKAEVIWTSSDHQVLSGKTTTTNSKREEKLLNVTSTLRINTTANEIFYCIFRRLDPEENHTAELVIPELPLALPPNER

T1 sequence (Q9NZQ7 19-239 limits assumed): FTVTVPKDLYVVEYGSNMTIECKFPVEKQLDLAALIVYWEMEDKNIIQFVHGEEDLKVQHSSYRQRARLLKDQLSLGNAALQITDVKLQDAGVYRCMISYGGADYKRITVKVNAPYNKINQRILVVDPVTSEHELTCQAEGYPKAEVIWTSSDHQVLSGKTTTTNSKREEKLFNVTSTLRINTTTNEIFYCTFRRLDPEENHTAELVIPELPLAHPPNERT
T2 sequence (Q9NZQ7 19-238 limits assumed): as the sequence (G7PSE7 entry or part of it limits assumed) above, with T33A, S34A, N62S, Q68R, R82Q, L173F, A185T, I192T, L215H counted along it
Chain of human PD-L1 protein (hybridoma screening) (Q9NZQ7 19-239 limits assumed): as the sequence (Q9NZQ7 19-239 limits assumed) above

Row | Binder | Kd [1] | EC50 [2] | IC50 [3] | Kd [4] | koff [4] | kon [4] | EC50 [5]
1 | B1 | 2.74 nM | – | – | – | – | – | –
2 | B2 | – | 0.0433 µg/mL | 0.00199 µg/mL | 1.34 nM | 0.000312 s⁻¹ | 233000 M⁻¹ s⁻¹ | 0.14 µg/mL
3 | B3 | – | 0.0485 µg/mL | 0.00242 µg/mL | 0.94 nM | 0.000219 s⁻¹ | 233000 M⁻¹ s⁻¹ | 0.115 µg/mL
